Results as given in article PMC3325613.

Key:
[1] = target: HIV-1 capsid protein C-terminal domain, CTD (144–231) (HIV-1) (UniProt P12493); test: ITC
[2] = target: HIV-1 capsid protein C-terminal domain, CTD (150–231) (HIV-1) (UniProt P12493); test: ITC

HIV-1 capsid protein C-terminal domain, CTD (144–231) (from UniProt P12493 276-363) (domain or fragment)
Kd [1]: 2500 nM

HIV-1 capsid protein C-terminal domain, CTD (150–231) (from UniProt P12493 282-363) (domain or fragment)
Kd [2]: 11 µM
